Laboratory results reported in patent US20210063414A1, “METHODS FOR PREVENTING AND/OR TREATING BONE LOSS CONDITIONS BY MODULATING IRISIN” (Dana-Farber Cancer Institute, Inc., priority 2018, published 2021).

Experiments:
Experiment in all cases: Crosslinking/co-immunoprecipitation/mass spectrometry (TMT quantitative proteomics) to identify irisin receptors
Format in all cases: binding
[1] = target: T1, MLO-Y4 cell surface proteins (Mus musculus, UniProt C0HKE1); conditions: co-precipitated protein Hist1h2ab (H2A1_MOUSE)
T1 construct: endogenous in cells; host or cells: MLO-Y4
In short: (§1)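 Relative protein abundance came from 6-plex TMT MS3 quantitation on an Orbitrap Fusion Lumos, after in-gel trypsin digestion of Coomassie-stained SDS-PAGE lanes. Input was a Ni-NTA pulldown (250 mM imidazole elution) of lysates from murine MLO-Y4 cells. These cells were treated on ice with His-tagged irisin or adipsin (10 nM, 20 min) in serum-free medium, then crosslinked with 1.5 mM DTSSP for 30 min.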

[2] = target: T2, MLO-Y4 cell surface proteins (Mus musculus, UniProt P52825); conditions: co-precipitated protein Cpt2 (CPT2_MOUSE)
T2 construct: endogenous in cells; host or cells: MLO-Y4
T2 sequence (P52825 26-658): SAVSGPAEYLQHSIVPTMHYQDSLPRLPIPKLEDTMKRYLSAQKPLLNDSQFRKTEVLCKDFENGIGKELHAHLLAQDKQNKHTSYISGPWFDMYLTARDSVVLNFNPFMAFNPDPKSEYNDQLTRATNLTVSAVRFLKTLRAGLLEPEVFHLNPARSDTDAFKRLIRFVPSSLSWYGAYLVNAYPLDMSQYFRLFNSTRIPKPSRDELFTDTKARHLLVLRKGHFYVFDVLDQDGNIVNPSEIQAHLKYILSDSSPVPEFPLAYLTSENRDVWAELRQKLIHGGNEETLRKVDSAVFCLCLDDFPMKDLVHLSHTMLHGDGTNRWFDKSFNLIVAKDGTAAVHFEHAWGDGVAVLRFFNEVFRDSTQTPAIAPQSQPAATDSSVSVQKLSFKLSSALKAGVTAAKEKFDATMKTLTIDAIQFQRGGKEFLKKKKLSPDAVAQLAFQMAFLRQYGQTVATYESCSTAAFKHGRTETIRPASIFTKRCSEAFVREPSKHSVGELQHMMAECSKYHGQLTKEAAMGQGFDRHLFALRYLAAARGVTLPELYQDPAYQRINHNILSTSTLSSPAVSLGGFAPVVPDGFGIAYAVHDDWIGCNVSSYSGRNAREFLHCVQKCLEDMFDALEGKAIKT
In short: as §1

[3] = target: T3, MLO-Y4 cell surface proteins (Mus musculus, UniProt P60843); conditions: co-precipitated protein Eif4a1 (IF4A1_MOUSE)
T3 construct: endogenous in cells; host or cells: MLO-Y4
In short: as §1

[4] = target: T4, MLO-Y4 cell surface proteins (Mus musculus, UniProt P63038); conditions: co-precipitated protein Hspd1 (CH60_MOUSE)
T4 construct: endogenous in cells; host or cells: MLO-Y4
In short: as §1

[5] = target: T5, MLO-Y4 cell surface proteins (Mus musculus, UniProt Q8BFT2); conditions: co-precipitated protein Haus4 (HAUS4_MOUSE)
T5 construct: endogenous in cells; host or cells: MLO-Y4
T5 sequence (Q8BFT2 1-363): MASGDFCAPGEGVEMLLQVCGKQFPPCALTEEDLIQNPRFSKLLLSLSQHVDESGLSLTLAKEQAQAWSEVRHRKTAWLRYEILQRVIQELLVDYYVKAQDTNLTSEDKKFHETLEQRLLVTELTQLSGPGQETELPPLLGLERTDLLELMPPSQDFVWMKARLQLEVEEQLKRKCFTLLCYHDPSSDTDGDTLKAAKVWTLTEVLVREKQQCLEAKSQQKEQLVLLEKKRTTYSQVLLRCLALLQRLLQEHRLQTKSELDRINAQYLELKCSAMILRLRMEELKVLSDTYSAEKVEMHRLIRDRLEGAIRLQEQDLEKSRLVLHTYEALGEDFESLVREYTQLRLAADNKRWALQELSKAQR
In short: as §1

T3 sequence (P60843 whole entry): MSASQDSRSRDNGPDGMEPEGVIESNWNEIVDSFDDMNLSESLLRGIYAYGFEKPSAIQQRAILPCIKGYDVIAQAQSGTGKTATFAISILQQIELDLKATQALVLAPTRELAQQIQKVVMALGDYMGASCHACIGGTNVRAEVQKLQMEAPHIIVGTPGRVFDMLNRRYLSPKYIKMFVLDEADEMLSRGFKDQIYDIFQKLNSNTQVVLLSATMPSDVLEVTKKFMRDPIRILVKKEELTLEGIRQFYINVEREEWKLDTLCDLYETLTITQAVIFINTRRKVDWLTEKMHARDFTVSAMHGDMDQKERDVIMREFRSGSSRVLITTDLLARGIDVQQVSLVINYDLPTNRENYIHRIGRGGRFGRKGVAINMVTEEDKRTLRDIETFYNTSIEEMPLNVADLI
T4 sequence (P63038 27-573): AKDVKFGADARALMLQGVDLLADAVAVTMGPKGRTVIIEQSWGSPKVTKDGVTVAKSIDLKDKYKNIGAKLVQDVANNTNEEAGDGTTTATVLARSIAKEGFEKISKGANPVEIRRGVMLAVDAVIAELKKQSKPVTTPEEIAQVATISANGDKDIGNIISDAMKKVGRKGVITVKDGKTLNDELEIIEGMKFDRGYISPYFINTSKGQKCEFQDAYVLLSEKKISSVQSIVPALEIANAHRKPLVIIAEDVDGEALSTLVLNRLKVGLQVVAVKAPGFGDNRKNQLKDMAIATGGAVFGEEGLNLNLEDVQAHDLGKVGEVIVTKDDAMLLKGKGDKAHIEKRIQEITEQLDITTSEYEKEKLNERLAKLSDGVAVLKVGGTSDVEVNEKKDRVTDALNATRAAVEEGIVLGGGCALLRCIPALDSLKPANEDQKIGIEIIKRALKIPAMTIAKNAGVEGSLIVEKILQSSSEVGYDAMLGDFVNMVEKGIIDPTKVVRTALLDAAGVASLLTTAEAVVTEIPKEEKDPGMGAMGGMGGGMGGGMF

Substance adipsin has a TMT signal-to-noise ratio [1] of 273.934, a TMT signal-to-noise ratio [2] of 177.54 and a TMT signal-to-noise ratio [3] of 136.49. It also gave a TMT signal-to-noise ratio [4] of 4263.9 and a TMT signal-to-noise ratio [5] of 518.102.
